Data published in patent publication US20080096225.

Target: microtubules (Example 3)

B1: Drosophila kinesin heavy chain fragment containing amino acids 5-351 with a C-terminal hexahistidine tag (protein)
chain: REIPAEDSIKVVCRFRPLNDSEEKAGSKFVVKFPNNVEENCISIAGKVYLFDKVFKPNASQEKVYNEAAKSIVTDVLAGYNGTIFAYGQTSSGKTHTMEGVIGDSVKQGIIPRIVNDIFNHIYAMEVNLEFHIKVSYYEIYMDKIRDLLDVSKVNLSVHEDKNRVPYVKGATERFVSSPEDVFEVIEEGKSNRHIAVTNMNEHSSRSHSVFLINVKQENLENQKKLSGKLYLVDLAGSEKVSKTGAEGTVLDEAKNINKSLSALGNVISALADGNKTHIPYRDSKLTRILQESLGGNARTTIVICCSPASFNESETKSTLDFGRRAKTVKNVVCVNEELTAEEWKRRHHHHHH
stimulation of the basal ATPase rate: 1,000-fold stimulation of the basal ATPase rate
